Measured values reported in patent US20050070692A1 (published 2005).
Substitutions are numbered along the chain they refer to. Names and notes keep the numbering of the source. Each block holds one binder with its values, some of them ahead of it.

Assays:
human IL-1β [1] = biological target: T1, human IL-1β (human, UniProt P01584 117-269); assay: competition ELISA on coated human IL-1β against biotinylated Mu007, average of three experiments
T1 construct: mature; also called mature human IL-1β; Interleukin-1β
Procedure: (§1) Wells of 96-well ELISA plates (Nunc-lmmuno plate, Cat # 439454, NalgeNunc) were coated with 100 μL of 0.5. μg/mL of human IL-1β in 0.2M sodium carbonate-bicarbonate buffer (pH 9.4) overnight at 4° C., washed with Wash Buffer, blocked with Superblock blocking buffer for 30 min at 37° C., and washed again with Wash Buffer. A mixture of biotinylated Mu007 (0.16 μg/mL final concentration) and competitor antibody (Mu007, Hu007, or Hu007 analogs starting at 100 μg/mL final concentration and serial 3-fold dilutions) in ELISA Buffer were added in triplicate in a final volume of 100 μL per well. As a no-competitor control, 100 μL of 0.16 μg/mL biotinylated Mu007 was used. As a background control, 100 gLL of ELISA Buffer was used. ELISA plates were incubated at 37° C. for 2 hr. After washing the wells with Washing Buffer, 100 μL of 1 μg/mL HRP-conjugated streptavidin (Jackson ImmunoResearch) was added to each well. ELISA plates were incubated at room temperature for 30 min and washed with Washing Buffer. For color development, 100 μL/well of ABTS substrate was added. Color development was stopped by adding 100 μL/well of 2% oxalic acid. Absorbance was read at 415 nm.
Mu007, Hu007 and Hu007 analogs competed with biotinylated Mu007 in a concentration-dependent manner. […]

human IL-1β [2] = biological target: T1, human IL-1β; assay: competition ELISA on coated human IL-1β against biotinylated Mu007, Exp. B
Procedure: as §1
(§2) Mu007, Hu007 and Hu007 analogs competed with biotinylated Mu007 in a concentration-dependent manner. The IC₅₀ values of Mu007 and Hu007 in three independent ELISA competition experiments, obtained using the computer software Prism (GraphPad Software Inc., San Diego, Calif.) are shown in Table 1. The relative binding of Hu007 was on average 89% of Mu007.

human IL-1β [3] = biological target: T1, human IL-1β; assay: competition ELISA on coated human IL-1β against biotinylated Mu007, Exp. C
Procedure: as §1, §2

human IL-1β [4] = biological target: T1, human IL-1β; assay: competition ELISA on coated human IL-1β against biotinylated Mu007, Exp. A
Procedure: as §1, §2

cynomolgus monkey IL-1β = biological target: T2, cynomolgus monkey IL-1β (cynomolgus monkey, UniProt P79182 117-268); assay: BIAcore, antibody captured on anti-IgG CM5 chip, IL-1β flowed
T2 construct: also called Cynomolgus IL-1β
T2 sequence (looked up): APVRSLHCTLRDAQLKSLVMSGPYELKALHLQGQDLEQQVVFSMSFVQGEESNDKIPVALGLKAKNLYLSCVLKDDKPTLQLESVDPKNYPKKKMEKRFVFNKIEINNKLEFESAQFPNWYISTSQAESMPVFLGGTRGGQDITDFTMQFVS
Procedure: (§3) Affinities and specificities of both Hu007 and Mu007 were determined using BlAcore measurements. BIAcore™ is an automated biosensor system that measures molecular interactions. (Karlsson, et al. (1991) J. Immunol. Methods 145: 229-240). In these experiments antibody was immobilized at low density on a BIAcore™ chip. Ethyl-dimethylaminopropyl-carbodiimide (EDC) was used to couple reactive amino groups to purified goat anti-human IgG or goat anti-rabbit IgG to a flow cell of a carboxy-methyl (CM5) BIAcore™ sensor chip. Goat IgG was diluted in sodium acetate buffer, pH 4.0, and immobilized on a flow cell of a CM5 chip using EDC to yield 1000 response units. Unreacted sites were blocked with ehanolamine. A flow rate of 60 μL/min was used. Multiple binding/elution cycles were performed by injection a 100 μL solution of 15 μg/mL Mu007 or Hu007 followed by human IL-1β, mouse IL-1β, rat IL-1β, cynomolgus monkey IL-1β, porcine IL-1β, human IL-1 receptor antagonist, and human IL-1α at decreasing concentrations for each cycle (e.g., 1500, 750, 375, 188, 94, 47, 23.5, 12, and 0 picomolar). Elution was performed with glycine-HCl, pH 1.5. BIAevaluation™ was used to analyze the kinetic data. Table 2 depicts the affinities of Hu007 and Mu007 for human and cynomolgus IL-1β. […] Cynomolgus and porcine IL-1β had 100% binding to Hu007 relative to human IL-1β.

human IL-1β [5] = biological target: T1, human IL-1β; assay: as above
Procedure: as §3

human IL-1β [6] = biological target: T1, human IL-1β; assay: cell-based or functional assay
human IL-1β [7] = biological target: T1, human IL-1β; assay: BIAcore, antibody captured on protein A CM5 chip, human IL-1β flowed
Procedure: (§4) Affinities and specificities of several Hu007 analogs were determined using BIAcore measurements. BIAcore™ is an automated biosensor system that measures molecular interactions. (Karlsson, et al. (1991) J. Immunol. Methods 145: 229-240). In these experiments antibody was immobilized at low density on a BIAcore™ chip. Ethyl-dimethylaminopropyl-carbodiimide (EDC) was used to couple reactive amino groups to protein A to a flow cell of a carboxy-methyl (CM5) BIAcore™ sensor chip. Protein A was diluted in sodium acetate buffer, pH 4.5, and immobilized on a flow cell of a CM5 chip using EDC to yield approximately 1000 response units. Unreacted sites were blocked with ethanolamine. A flow rate of 60 μl/min was used. Multiple binding/elution cycles were performed by injection of 10 μl of a 5 μg/mL Hu007 solution, and heavy chain CDR2 analogs N55D, N55S, N55Q, G56A, and G56V, followed by human IL-1β at decreasing concentrations for each cycle (e.g. 1500, 750, 375, 188, and […]). Elution was performed with glycine-HCl, pH 1.5. BIAevaluation™ was used to analyze the kinetic data. Table 5 depicts the affinities of Hu007 and the various Hu007 analogs for human IL-1β.

human IL-1β [8] = biological target: T1, human IL-1β; assay: cell-based or functional assay; remark: listed apart in the source
human IL-1β [9] = biological target: T1, human IL-1β; assay: BIAcore (Example 13)
Procedure: as §4

- IC50 (human IL-1β [1]): 0.4 µg/mL
- IC50 (human IL-1β [2]): 0.4 µg/mL
- IC50 (human IL-1β [3]): 0.39 µg/mL
- IC50 (human IL-1β [4]): 0.4 µg/mL
- Kd (cynomolgus monkey IL-1β): 0.0073 nM
- Kd (human IL-1β [5]): 0.0062 nM
- IC50, inhibition of IL-1β stimulated proliferation of T1165.17 cells (3H-thymidine), average of three experiments (human IL-1β [6]): 0.22 nM
B1: mouse monoclonal antibody Mu007 (antibody, V domains shown)
VH: QVQLVQSGAEVKKPGASVKVSCKVSGYTFSRYWIEWVRQAPGKGLEWIGEILPGNGNINYNEKFKGKATITADTSTDTAYMELSSLRSEDTAVYYCSTIYYDYDQGFTYWGQGTLVTVSA
VL: DIKMTQSPSSMYASLGERVTITCKASQDIDRYLSWFQQKPGKSPKTLIYRVKRLVDGVPSRFSGSASGQDYSLTISSLQYEDMGIYYCLQYDEFPYTFGGGTKLEIK

- Kd (human IL-1β [7]): 0.0336 nM
- IC50, inhibition of human IL-1β stimulated proliferation (human IL-1β [8]): 184 Picomolar
B2: Hu007 analog G56A (antibody, human IgG1, kappa, V domains shown)
VH: B1 VH with G56A, A120S
VL: DIQMTQSPSSLSASVGDRVTITCKASQDIDRYLSWFQQKPGKAPKSLIYRVKRLVDGVPSRFSGSASGTDYTLTISSLQPEDFATYYCLQYDEFPYTFGQGTKLEIKR
notes: IgG1; Heavy chain of Hu007 with G56A, co-transfected with the WT Hu007 light chain

- Kd (human IL-1β [7]): 0.257 nM
- IC50, inhibition of human IL-1β stimulated proliferation (human IL-1β [8]): 2500 Picomolar
B3: Hu007 analog N55Q (antibody, human IgG1, kappa, V domains shown)
VH: B1 VH with N55Q, A120S
VL: B2 VL
notes: IgG1; Heavy chain of Hu007 with N55Q, co-transfected with the WT Hu007 light chain

- Kd (human IL-1β [7]): 0.0732 nM
- IC50, inhibition of human IL-1β stimulated proliferation (human IL-1β [8]): 395 Picomolar
B4: Hu007 analog G56V (antibody, human IgG1, kappa, V domains shown)
VH: B1 VH with G56V, A120S
VL: B2 VL
notes: IgG1; Heavy chain of Hu007 with G56V, co-transfected with the WT Hu007 light chain

- Kd (human IL-1β [7]): 0.0281 nM
- IC50, inhibition of human IL-1β stimulated proliferation (human IL-1β [8]): 184 Picomolar
- fold of the binding affinity of Hu007 (human IL-1β [9]): ≤ 3 fold
B5: Hu007 analog N55S (antibody, human IgG1, kappa, V domains shown)
VH: B1 VH with N55S, A120S
VL: B2 VL
notes: IgG1; also called heavy chain CDR2, N55S

- Kd (human IL-1β [7]): 0.149 nM
- IC50, inhibition of human IL-1β stimulated proliferation (human IL-1β [8]): 1100 Picomolar
- fold loss of binding affinity against Hu007 (human IL-1β [9]): ~15 fold
B6: Hu007 analog N55D (antibody, human IgG1, kappa, V domains shown)
VH: B1 VH with N55D, A120S
VL: B2 VL
notes: IgG1; Heavy chain of Hu007 with N55D, co-transfected with the WT Hu007 light chain; It mimics fully deamidated Hu007; also called heavy chain CDR2 analog N55D
